Paper PMC9513805, “A natural transdifferentiation event involving mitosis is empowered by integrating signaling inputs with conserved plasticity factors”

What was measured:
HMG-POP-1 = target: T1, HMG-POP-1 (Caenorhabditis elegans, UniProt Q10666 181-281); experiment: EMSA; 20 mM Tris-HCl pH 8.0, 100 mM NaCl, 100 ug/mL BSA, 1 mM EDTA, 1 mM DTT, 0.1% NP-40; 20 min on ice (supershift 30 min at room temperature), 200 ng Cy5 probe; 6%; settings: protein: recombinant; tags: N-terminal 6xHis (pSJ769); label: Cy5 on forward strand; blunt
T1 sequence: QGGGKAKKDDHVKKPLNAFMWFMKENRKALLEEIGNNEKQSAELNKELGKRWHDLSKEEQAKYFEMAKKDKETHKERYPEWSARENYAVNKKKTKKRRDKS

SOX-2 = SOX-2 (Caenorhabditis elegans, UniProt Q21305 1-283); experiment: as above; settings: protein: recombinant; tags: N-terminal 6xHis, C-terminal HA (pSJ6094); label: Cy5 on forward strand; blunt
SOX-2, sequence (Q21305 whole entry): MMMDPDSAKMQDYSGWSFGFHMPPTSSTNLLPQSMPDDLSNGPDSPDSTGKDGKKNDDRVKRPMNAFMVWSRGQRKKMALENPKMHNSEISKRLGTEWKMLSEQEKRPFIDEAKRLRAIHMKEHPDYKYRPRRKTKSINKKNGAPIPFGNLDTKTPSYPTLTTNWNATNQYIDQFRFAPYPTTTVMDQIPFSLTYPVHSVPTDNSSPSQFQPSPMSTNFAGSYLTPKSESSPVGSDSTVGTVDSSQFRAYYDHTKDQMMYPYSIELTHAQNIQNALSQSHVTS

Row | Binder | binding result (HMG-POP-1) | binding result (SOX-2)
1 | lim-6 intron 4 probe 1 (dsDNA) DNA 1: TACGATTTGCAAACAACAAACATTCCAGACAGAT DNA 2: ATCTGTCTGGAATGTTTGTTGTTTGCAAATCGTA | binds | binds
2 | lim-6 intron 4 probe 2 (dsDNA) DNA 1: CTGCTACCGTAGTGCTTTGTTGATTTAACACACA DNA 2: TGTGTGTTAAATCAACAAAGCACTACGGTAGCAG | binds | binds
